# Experimental data from IntAct's records for PubMed 17721515.
# B1: Focal adhesion kinase 1 (Gallus gallus (Chicken)), Q00944 (parent)
# chain: MAAAYLDPNLNHTPSSSAKTHLGTGMERSPGAMERVLKVFHYFENSSEPTTWASIIRHGDATDVRGIIQKIVDCHKVKNVACYGLRLSHLQSEEVHWLHLDMGVSNVREKFELAHPPEEWKYELRIRYLPKGFLNQFTEDKPTLNFFYQQVKNDYMLEIADQVDQEIALKLGCLEIRRSYGEMRGNALEKKSNYEVLEKDVGLRRFFPKSLLDSVKAKTLRKLIQQTFRQFANLNREESILKFFEILSPVYRFDKECFKCALGSSWIISVELAIGPEEGISYLTDKGANPTHLADFNQVQTIQYSNSEDKDRKGMLQLKIAGAPEPLTVTAPSLTIAENMADLIDGYCRLVNGATQSFIIRPQKEGERALPSIPKLANNEKQGVRSHTVSVSETDDYAEIIDEEDTYTMPSTRDYEIQRERIELGRCIGEGQFGDVHQGIYMSPENPAMAVAIKTCKNCTSDSVREKFLQEALTMRQFDHPHIVKLIGVITENPVWIIMELCTLGELRSFLQVRKFSLDLASLILYAYQLSTALAYLESKRFVHRDIAARNVLVSATDCVKLGDFGLSRYMEDSTYYKASKGKLPIKWMAPESINFRRFTSASDVWMFGVCMWEILMHGVKPFQGVKNNDVIGRIENGERLPMPPNCPPTLYSLMTKCWAYDPSRRPRFTELKAQLSTILEEEKLQQEERMRMESRRQVTVSWDSGGSDEAPPKPSRPGYPSPRSSEGFYPSPQHMVQPNHYQVSGYSGSHGIPAMAGSIYPGQASLLDQTDSWNHRPQEVSAWQPNMEDSGTLDVRGMGQVLPTHLMEERLIRQQQEMEEDQRWLEKEERFLVMKPDVRLSRGSIEREDGGLQGPAGNQHIYQPVGKPDHAAPPKKPPRPGAPHLGSLASLNSPVDSYNEGVKIKPQEISPPPTANLDRSNDKVYENVTGLVKAVIEMSSKIQPAPPEEYVPMVKEVGLALRTLLATVDESLPVLPASTHREIEMAQKLLNSDLAELINKMKLAQQYVMTSLQQEYKKQMLTAAHALAVDAKNLLDVIDQARLKMISQSRPH
# Variants of: B1
# Conditions: with arp3_bovin ACTR3, P61157
row,effect of a mutation on the interaction,Variant
1,increasing interaction,Y397F
